Source: the DeepSol protein solubility set

Experiment: soluble on expression in E. coli; label from the status in PepcDB or PDB records

Row | Sequence | soluble on expression in E. coli
1 | MGSDKIHHHHHHMKKNGTTNSNGGNLGFEADLFKAADKLRGNMEPSDYKHVALGLIFLKYISDAFEARHQALLAEDPRAAEDRDEYLADNVFWVPKEARWSHLRANARRPEIGLLIDEAMRAIEKENESLKGVLPKDYARPALNKVMLGELIDLISGIALGEEGDRSKDILGRVYEYFLGQFAGAEGKRGGEFYTPRSVVRVLVEMLEPYHGRVYDPCCGSGGMFVQSEKFVQEHGGRIGDIAIYGQESNYTTWRLCKMNLAVRGIDADIRWNNEGSFHKDELRDLKADFILANPPFNISDWGGERLREDVRWSFGVPPVGNANYAWLQHIHHHLAPNGTAGVVLANGSMSSNQSGEGEIRKAMVEADVVDCMVALPGQLFYSTQIPACLWFLARNKNPGKGLRDRRGQVLFIDARKLGVLVDRTRRELTDAEIQKIADTYHAWRGEPDAGEYQDVPGFCKSATLEEIRKHGFVLTPGRYVGAAQQEDDGEPFEEKMARLAAQWREQRAAAAKLDAAIEANLKELGYGG | not soluble
2 | GSTSAKRIQKELAEITLDPPPNCSAGPKGDNIYEWRSTILGPPGSVYEGGVFFLDITFSPDYPFKPPKVTFRTRIYHCNINSQGVICLDILKDNWSPALTISKVLLSICSLLTDCNPADPLVGSIATQYMTNRAEHDRMARQWTKRYAT | soluble
3 | MGSDKIHHHHHHLYSFTIASDTIELVKSLHYSILVLNMEAEEMFSKKQDPFAVKLSEIAGHLQRTSQFFVDFKINGIADVKEFAHKVKDFETAGDDLMHQLIIDLNNAFITPIDREDLLALANSLDDVLDGFEECSAIFEIYNIVQADEHMIRFVDEIHIAVNELALSMDLLVARKLQPMREHVIKVKEQETICDNLRRKSIKALFATETDPIKIIQYKEIYESLESIADYCQDAANVIETIIMKNA | not soluble
4 | MGSDKIHHHHHHMRKEKLYTGCLLLMALITGSCSEEENPEVRPATKPAEPYTSYYYYSYEAARQLSATDFALAEGQFTPGPTYIKGDTLFVANIQSGAFSLELYDRNKNRHLASLKSWKYKEAEQKFPDKIEAIGISGNRLYLANISSRIDVFDVRTLEFITRIGTGNWGDGINQMVHSHAMAITPDGNIMIRTKKNLLVYREADVTLENYQKVPFYCRSKGDGMDVNNGFHSHQMVQDSTGIVYLADFGQYGNQKIQAIDTTLIEKGDQKILIDTEKTLPLSFNPCGIALHENRMILSAQNGSLFIYDRTKGNWENSFKSVKGYTFKKPEKLLVDQNTLWVSDVNAQKLVEVKIYKNEIREY | not soluble
5 | MTAHRSVLLVVHTGRDEATETARRVEKVLGDNKIALRVLSAEAVDRGSLHLAPDDMRAMGVEIEVVDADQHAADGCELVLVLGGDGTFLRAAELARNASIPVLGVNLGRIGFLAEAEAEAIDAVLEHVVAQDYRVEDRLTLDVVVRQGGRIVNRGWALNEVSLEKGPRLGVLGVVVEIDGRPVSAFGCDGVLVSTPTGSTAYAFSAGGPVLWPDLEAILVVPNNAHALFGRPMVTSPEATIAIEIEADGHDALVFCDGRREMLIPAGSRLEVTRCVTSVKWARLDSAPFTDRLVRKFRLPVIGWRGK | soluble
6 | MAHHHHHHMAYPYNAYLGYTQPPTQYGQPPVVAGAHGHLPVTTPLPYNAQSAYGGAQPPMPTSTGVYAPSARHMNDNQELMEWFRAVDTDGSGAISVPELNAALSSAGVPFSLATTEKLLHMYDKNHSGEITFDEFKDLHHFILSMREGFRKRDSSGDGRLDSNEVRAALLSSGYQVSEQTFQALMRKFDRQRRGSLGFDDYVELSIFVCRVRNVFAFYDRERTGQVTFTFDTFIGGSVSIL | soluble
7 | MGSDKIHHHHHHMPGICLCFQVHRPVILKRYTFFDIGRHHLYEDQEANRRILNQLADSCYLPANRLLLRLMEKSEGRFRVAFALSGAMIHLCEKYRQDIMEGFRRLADTGCVEFLNEADPHSLAFLFSPREFREQIEAHKKKIQELFGQNPTTFHCTDLIYSNELAGVAEEMGHSAFLAEGGQGLPGFQGPDFVYQPADCARLKLLLRNYHLSADIRLHFSDGSRNGHPFPAGWFAERILHSLENSGGQVVNLFLDYETSGKYLTPDRGNSEFLQALSAEMLGQPDFHFQLPAEIAQRYDPQARLDVTDSASGFDIHRNLTTVAGNAMQQDALRVLYDLEEAVRKRKDADCLAIWRMLQTSDYFNYMCTEGFADRVRRRDSGPYGSPYESYINYMNILEDFSRTLQS | not soluble
8 | QSSKSPLTAALGLDISGTPIITDLQKMPHGLIAGATGSGKSVCINSLLVSLLYKATPDQLKLLLIDPKMVELAPYNRIPHLVSPVITDAKAATVALKWAVEEMERRYQLFSHTGVRNMEKYNEYASHPDHTGEKLPYILIVIDELADLMMVAPNDVEESISRIAQKARACGIHMIVATQRPSV | not soluble
9 | MERVASVLSALKPTLEKHQLGSWKPAEVDRLCAMLREYGKQERRDKCGTSCLDGAATALASLPSSSSVPPSLPSGGDDVEDENDADEEAFAGVVSEVDRCLSLVRDFLKRRMPFGAVVEPTLPAGTAERQAPQSSSADIISCKRARSLSGEPSSSAPTSNSVHSGAAVVEAPVYAVDAFLYAEGDIEKLVEAKKLAREYCCRCGSTDLGLVEFITHSFSQDQLVYLSCFLLPHLLDVVVASHEASRPLSIVDVGSRLGIVLWACAFALQRGLLAPAQAATTDAAADDAAPEVNLVGIELDATFVKISQDVARRFFAQRRRHAPKLVSVPQPAAANGVDAKLPDVSSSIQLLQSDCFEGAAASALSESSLVVMHNVFEYFCTTAVEHARCWLKLRRLVHRSGQFLVCSPALEVTLGTFTDEVWLQAWQLENGNDARGASTPLAWLASYVEPFDTADVASDFLTMRTLSCEGCDAGSDGDKHHEDHHGRSRDHHHHSSEDDEGDGEEASEMAEQIQRIYVYCVK | not soluble
10 | MAHHHHHHMAQSLVWRYLGPEDTHRCLDAPDVPSVRNLLVEIDDGMDGKLINCRNYNKGQLMIVLDMLAHLIVFTKTCSMSLEKVSTIVGIMLELHRESMSNQYTRSQSYHRLRELMLLHSVPRPPFSCGIFSVADVQHIDEYLLLSYFRHYKMYVYAFVPQRLANIHSVSVGHNHCVPPLGLPALTTATPRAEWIAKVEDTHRQMEERQMEVEDVRSAEYEEEWLKHRYLNGTHYSEGLREQLQSIKRDVSDKALNQLDLIEARLVEIEKKVEIVQQRQDGKGGKRKK | not soluble
11 | MSDYLSVSSLTKYLKLKFDRDPYLERVYLTGQVSNFRRRPNHQYFSLKDEKAVIQATMWSGIYRKLGFELEEGMKINVIGRVQLYEPSGSYSIIIEKAEPDGIGALAVQFEQLKKKLAEAGYFDDRHKQRLSQFVKKIGVVTSPSGAVIRDIITTVSRRFPGVDILLFPTKVQGEGAAQEVADNIRLANERTDLDLLIVGRGGGSIEDLWAFNEEIVVQAIFESHLPIISSVGHETDTTLADFAADRRAATPTAAAELATPVTKADLLAFLKERQMRSYQAVMRLIRQKDEQVKKLQRSVIFRQPERLYDAYVQKLDHLRTHLLTKVRQVYDVYDSKEHLLRQRLLSFNLSGCIQRYQAQLKQDQRLLLSHMSSQYDSKLARFEKAQDALLSLDTTRIVARGYAIVQKDNHIIQSTQQIKKGDRLHLEMKDGQVQVEVENVKQEENI | not soluble
12 | MEKFRVIGSTQPLQGEVTISGAKNAALPILFASILAEEPVEVANVPHLRDIDTTMELLERLGAKVERNGSVHVDAGPINQYCAPYDLVKTMRASIWALGPLVARFGQGQVSLPGGCAIGARPVDLHIHGLEQLGATITLEDGYVKAHVDGRLQGAHIVMDKVSVGATITIMCAATLAEGTTVLDNAAREPEIVDTAMFLNKLGAKISGAGTDSITIEGVERLGGGKHAVVPDRIETGTFLVAAAVSRGKIVCRNTHAHLLEAVLAKLEEAGAEIECGEDWISLDMTGRELKAVTVRTAPHPGFPTDMQAQFTLLNMMAKGGGVITETIFENRFMHVPELKRMGAKAEIEGNTVICGDVDRLSGAQVMATDLRASASLVIAGCIAKGETIVDRIYHIDRGYERIEDKLSALGANIERFRD | not soluble
13 | MHAVHQLHQYRKSLSTTTYKSRGQRVIRCQLCQLAKPFCICEISPLKENVETTAGFLLLMYDTEVLKPSNTGKLIADLIPDTFAFLWSRTQENPDLLAVINDEKWFPLVVFPQEYADDERKVFTNNVICPEGKRPLFIMLDGSWREAKKMFRKSPYLDRFPMVSFDVKTAIQAVSGNCQSENNSQLSPVGQDSRYTVRKTELEHQFSTAEVAARVLDMHGETTNAHMLDLWFDVFNFQYQKGVCQRNKGNVNAIENYQSFLAKTYRLEHHHHHH | not soluble
14 | MKYFLPLDVSLASAYLKATMSFKDPPTLQQLARRSLLKDEALTISALLNLPVQLFPPLFKDAFTSRQRKILSLMVAAWPFPVLPVGALGGIDHLETLKAVLDGLDLLMSQKDRPRWNLQVLDLGNAHQDFWDGWAGLLHEVCSQDVFGKNQPVGNHPIPGGKQTITIKMNLSLKYCRHSKYLNYLHWWAEQRKDGIQVICEKLEFTGPHSSIQELAIKSIHWDIYNLALIASCLGQMKNLQKLILMNIRRPPDLADLQEAHIVTEIFSEFSKLHKVHYLHVNNVYFLKERLDQMLRCFERPLETLAITHCRLSELDMRYLSQCPSIHQLKYLDMSYTTFKPSSHRFLGSLLERLTATLQTLKLECFHLTDFQIRDLLPGLSQCSQLTEVDIAMNEFSVVSLKKLLKHTANLTQLTLEKYPAPVEVYDDGHSVISDRFVQLCSELMNTLKGVRQAKQVYFVSMPCLRNYEFLIYNLKGLDSSEQLRRRGLSWALINGEQVSRDSLQL | not soluble
15 | MNIGVIGTGNMGTILIEAFLDSGAVKADQLVITNRTLAKAFAIQRAHPGIAVVADAAEVIKQSSLVFLCVKPLDIHPLLQQLAPHWTREHCLVSITSPISVEQLEAAVPCQIVRAIPSIANRALSGSILVTFGSRCSTTCRQTIDDLLRRIASPVYIDEAITRVASDISSCGPAFFSYLLQRFIDAAAAKTAITKEQATMLATDMIIGLGELLKRNLYTLPTLQEKVCVKGGITGEGIAVLEQRMNGVFEEVLAKTHEKFKEDVEKVKQQFS | not soluble
16 | MRGSHHHHHHTDPALRATIWVDADACPNVIKEILYRAAERMQMPLVLVANQSLRVPPSRFIRTLRVAAGFDVADNEIVRQCEAGDLVITADIPLAAEAIEKGAAALNPRGERYTPATIRERLTMRDFMDTLRASGIQTGGPDSLSQRDRQAFAAELEKWWLEVQRSRGGLCGR | soluble
17 | MTTALKIDFISDVSCPWCVIGLRALDQALEALGDEVQAQIHFQPFELNPNMPAEGQDIKEHIAEKYGSTPEQIEAIHETIRERGAELGFTFGKGERRIYNTFDAHRLLHWAEQEGKQPALKQALFVAYFSELKDPSSHQTLADVAQKVGLDRLRAQAILDSDEFASEVREAEQLWTSRGITSVPTMVFNDQYAVSGGQPVEVFVSAIRQMLSESK | not soluble
18 | MDNKTYEISSAEWEVMNIIWMKKYASANNIIEEIQMQKDWSPKTIRTLITRLYKKGFIDRKKDNKIFQYYSLVEESDIKYKTSKNFINKVYKGGFNSLVLNFVEKEDLSQDEIEELRNILNKK | soluble
19 | SLKGRWVKYLLMGTVVAMLAACSSKPTDRGQQYKDGKFTQPFSLVNQPDAVGAPINAGDFAEQINHIRNSSPRLYGNQSNVYNAVQEWLRAGGDTRNMRQFGIDAWQMEGADNYGNVQFTGYYTPVIQARHTRQGEFQYPIYRMPPKRGRLPSRAEIYAGALSDKYILAYSNSLMDNFIMDVQGSGYIDFGDGSPLNFFSYAGKNGHAYRSIGKVLIDRGEVKKEDMSMQAIRHWGETHSEAEVRELLEQNPSFVFFKPQSFAPVKGASAVPLVGRASVASDRSIIPPGTTLLAEVPLLDNNGKFNGQYELRLMVALDVGGAIKGQHFDIYQGIGPEAGHRAGWYNHYGRVWVLKTAPGAGNVFSG | not soluble
20 | MVYKTKLGEIEISDESIFTFEKGIPGFEHLRKFALVFPQETFPIGWLLSLEDSEVGLPVVDPKLVRADYDPAVPSEDLEEIEAENQEALLFFCVLTIPPGKPEKTTINLRAPIILNQKKKKGIQTILENEDYQLRHLLSEEIERSKTVVAAALEHHHHHH | soluble
